# According to patent US11912794B2, “Modulation of structured polypeptide specificity” (BicycleRD Limited, priority 2011, dated 2024):
# Ends that are not written are not given here.
# Molecular target: T1, Biotinylated hPK (Homo sapiens, UniProt P03952)
# T1 construct: IHPKA, from human plasma; purchased Innovative Research, Novi, MI, USA IHPKA; host or cells: human plasma
# Experiment: Phage selections, abundance of sequences in selection outputs
# Assay type: binding
# Conditions: for Frequency (relative abundance in the total selection outputs): randomised WPAR motif at positions 2, 3, 4 & 5 within the 06-34-03 sequence
# Method: Glycerol stocks of phage libraries were diluted to OD600=0.1 in 500 ml 2YT/chloramphenicol (30 μg/ml) cultures and phage were produced at 30° C. over night (15-16 hrs). Phage were purified and chemically modified as described in Heinis, et al., Nat Chem Biol 2009, 5 (7), 502-7 Biotinylated hPK (3 μg) (IHPKA, from human plasma, Innovative Research, Novi, MI, USA) was incubated with 50 μl pre-washed magnetic streptavidin beads (Dynal, M-280 from Invitrogen, Paisley, UK) for 10 minutes at RT. […] Blocked beads were then mixed with the blocked chemically modified phage and incubated for 30 minutes on a rotating wheel at RT. Beads were washed 8 times with washing buffer containing 0.1% Tween 20 and twice with washing buffer before incubation with 100 μl of 50 mM glycine, pH 2.2 for 5 minutes. Eluted phage were transferred to 50 μl of 1 M Tris-Cl, pH 8 for neutralization, incubated with 30 ml TG1 cells at OD600=0.4 for 90 minutes at 37° C. and the cells were plated on large 2YT/chloramphenicol plates. One or two additional rounds of panning were performed using the same procedures. In the second round of selection, neutravidin-coated magnetic beads were used to prevent the enrichment of streptavidin-specific peptides. The neutravidin beads were prepared by reacting 0.8 mg neutravidin (Pierce, Rockford, IL, USA) with 0.5 ml tosyl-activated magnetic beads (Dynal, M-280 from Invitrogen, Paisley, UK) according to the supplier's instructions.
# The WPAR (SEQ ID NO: 18) motif identified from Example 1 was analysed in the context of the 06-34-03 peptide, in order to identify alternatives or improvements to the WPAR (SEQ ID NO: 18) motif. A library was constructed where positions 1, 6, 7, 8, 9 &10 of 06-34-03 were fixed and positions 2, 3, 4 & 5 were randomised (see ‘Randomisation of peptide domains—Library construction’ in Methods above). Selections against human plasma Kallikrein were performed at a variety of stringencies (see Phage selections' in Methods above). All output sequences were identified and analysed for target binding (see ‘Randomisation of peptide domains—Assay of binding of individual clones’ in Methods above). Table 17 lists each unique sequence, its relative abundance in the selection output (frequency), and a rank number according to target binding strength.
# [1] = 2nd stringency from High (1st value of cell)
# [2] = 3rd stringency from High (2nd value of cell)
# [3] = 4th stringency from High (3rd value of cell)
# [4] = 5th stringency from High (4th value of cell)
# T1 sequence (P03952 20-638): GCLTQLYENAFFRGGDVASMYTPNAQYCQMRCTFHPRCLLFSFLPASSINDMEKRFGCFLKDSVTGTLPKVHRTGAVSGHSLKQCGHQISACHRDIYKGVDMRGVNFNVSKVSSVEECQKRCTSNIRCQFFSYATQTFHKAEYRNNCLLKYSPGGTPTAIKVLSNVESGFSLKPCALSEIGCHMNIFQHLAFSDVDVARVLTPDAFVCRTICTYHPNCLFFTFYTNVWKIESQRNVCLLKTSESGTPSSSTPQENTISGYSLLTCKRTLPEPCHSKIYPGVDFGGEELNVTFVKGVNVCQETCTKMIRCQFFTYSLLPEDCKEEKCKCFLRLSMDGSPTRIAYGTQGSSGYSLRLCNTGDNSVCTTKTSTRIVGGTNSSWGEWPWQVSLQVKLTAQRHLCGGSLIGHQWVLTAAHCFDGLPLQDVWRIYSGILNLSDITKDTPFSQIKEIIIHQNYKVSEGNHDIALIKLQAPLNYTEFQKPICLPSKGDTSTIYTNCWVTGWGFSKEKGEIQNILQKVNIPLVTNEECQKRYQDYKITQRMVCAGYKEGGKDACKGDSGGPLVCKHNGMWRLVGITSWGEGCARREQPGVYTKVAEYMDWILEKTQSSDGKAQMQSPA
substance,measurement,setting,value
"WPSR: phage clone: WPSR at positions 2-5 within the 06-34-03 sequence, TBMB-cyclised (also: TBMB-cyclised within the 06-34-03 context, the cysteines lie outside this motif)",Relative abundance of motif in selection output,[1],31%
same,Relative abundance of motif in selection output,[2],41%
same,Relative abundance of motif in selection output,[3],26%
same,Relative abundance of motif in selection output,[4],23%
same,Relative abundance of motif in selection output,stringency High,34%
same,Relative abundance of motif in selection output,stringency LOW,11%
"SEQ ID NO: 102 (CSLPIRCTHQDLC; Synthetic sequence Kallikrein binder identified from selections using a randomised WPAR motif at positions 2, 3, 4 & 5 within the 06-34-03 sequence of PCT/EP2012/069898 (SEQ ID NO 58))",Frequency (relative abundance in the total selection outputs),,1
"SEQ ID NO: 105 (CSYPWRCTHQDLC; Synthetic sequence Kallikrein binder identified from selections using a randomised WPAR motif at positions 2, 3, 4 & 5 within the 06-34-03 sequence of PCT/EP2012/069898 (SEQ ID NO 58))",Frequency (relative abundance in the total selection outputs),,1
"SEQ ID NO: 96 (CSWHARCTHQDLC; Synthetic sequence Kallikrein binder identified from selections using a randomised WPAR motif at positions 2, 3, 4 & 5 within the 06-34-03 sequence of PCT/EP2012/069898 (SEQ ID NO 58))",Frequency (relative abundance in the total selection outputs),,1
"SEQ ID NO: 104 (CSIPFKCTHQDLC; Synthetic sequence Kallikrein binder identified from selections using a randomised WPAR motif at positions 2, 3, 4 & 5 within the 06-34-03 sequence of PCT/EP2012/069898 (SEQ ID NO 58))",Frequency (relative abundance in the total selection outputs),,1
"SEQ ID NO: 93 (CSYPFRCTHQDLC; Synthetic sequence Kallikrein binder identified from selections using a randomised WPAR motif at positions 2, 3, 4 & 5 within the 06-34-03 sequence of PCT/EP2012/069898 (SEQ ID NO 58))",Frequency (relative abundance in the total selection outputs),,1
"SEQ ID NO: 76 (CSWLARCTHQDLC; Synthetic sequence Kallikrein binder identified from selections using a randomised WPAR motif at positions 2, 3, 4 & 5 within the 06-34-03 sequence of PCT/EP2012/069898 (SEQ ID NO 58))",Frequency (relative abundance in the total selection outputs),,8
"SEQ ID NO: 111 (CRWPYHCTHQDLC; Synthetic sequence Kallikrein binder identified from selections using a randomised WPAR motif at positions 2, 3, 4 & 5 within the 06-34-03 sequence of PCT/EP2012/069898 (SEQ ID NO 58))",Frequency (relative abundance in the total selection outputs),,1
"SEQ ID NO: 107 (CSFSYKCTHQDLC; Synthetic sequence Kallikrein binder identified from selections using a randomised WPAR motif at positions 2, 3, 4 & 5 within the 06-34-03 sequence of PCT/EP2012/069898 (SEQ ID NO 58))",Frequency (relative abundance in the total selection outputs),,1
"SEQ ID NO: 106 (CSFPFWCTHQDLC; Synthetic sequence Kallikrein binder identified from selections using a randomised WPAR motif at positions 2, 3, 4 & 5 within the 06-34-03 sequence of PCT/EP2012/069898 (SEQ ID NO 58))",Frequency (relative abundance in the total selection outputs),,1
"SEQ ID NO: 101 (CSFLYKCTHQDLC; Synthetic sequence Kallikrein binder identified from selections using a randomised WPAR motif at positions 2, 3, 4 & 5 within the 06-34-03 sequence of PCT/EP2012/069898 (SEQ ID NO 58))",Frequency (relative abundance in the total selection outputs),,2
"SEQ ID NO: 94 (CSFPYKCTHQDLC; Synthetic sequence Kallikrein binder identified from selections using a randomised WPAR motif at positions 2, 3, 4 & 5 within the 06-34-03 sequence of PCT/EP2012/069898 (SEQ ID NO 58))",Frequency (relative abundance in the total selection outputs),,1
"FPFR: phage clone: FPFR at positions 2-5 within the 06-34-03 sequence, TBMB-cyclised (also: TBMB-cyclised within the 06-34-03 context, the cysteines lie outside this motif)",Relative abundance of motif in selection output,[1],19%
same,Relative abundance of motif in selection output,[2],9%
same,Relative abundance of motif in selection output,[3],4%
same,Relative abundance of motif in selection output,[4],13%
same,Relative abundance of motif in selection output,stringency High,7%
same,Relative abundance of motif in selection output,stringency LOW,11%
"SEQ ID NO: 78 (CSFPFKCTHQDLC; Synthetic sequence Kallikrein binder identified from selections using a randomised WPAR motif at positions 2, 3, 4 & 5 within the 06-34-03 sequence of PCT/EP2012/069898 (SEQ ID NO 58))",Frequency (relative abundance in the total selection outputs),,4
"SEQ ID NO: 79 (CSWAARCTHQDLC; Synthetic sequence Kallikrein binder identified from selections using a randomised WPAR motif at positions 2, 3, 4 & 5 within the 06-34-03 sequence of PCT/EP2012/069898 (SEQ ID NO 58))",Frequency (relative abundance in the total selection outputs),,1
"SEQ ID NO: 114 (CSWQARCTHQDLC; Synthetic sequence Kallikrein binder identified from selections using a randomised WPAR motif at positions 2, 3, 4 & 5 within the 06-34-03 sequence of PCT/EP2012/069898 (SEQ ID NO 58))",Frequency (relative abundance in the total selection outputs),,1
"SEQ ID NO: 112 (CSLFDHCTHQDLC; Synthetic sequence Kallikrein binder identified from selections using a randomised WPAR motif at positions 2, 3, 4 & 5 within the 06-34-03 sequence of PCT/EP2012/069898 (SEQ ID NO 58))",Frequency (relative abundance in the total selection outputs),,1
"SEQ ID NO: 87 (CSFPIRCTHQDLC; Synthetic sequence Kallikrein binder identified from selections using a randomised WPAR motif at positions 2, 3, 4 & 5 within the 06-34-03 sequence of PCT/EP2012/069898 (SEQ ID NO 58))",Frequency (relative abundance in the total selection outputs),,1
"SEQ ID NO: 108 (CSWSYRCTHQDLC; Synthetic sequence Kallikrein binder identified from selections using a randomised WPAR motif at positions 2, 3, 4 & 5 within the 06-34-03 sequence of PCT/EP2012/069898 (SEQ ID NO 58))",Frequency (relative abundance in the total selection outputs),,1
"SEQ ID NO: 82 (CSWPYRCTHQDLC; Synthetic sequence Kallikrein binder identified from selections using a randomised WPAR motif at positions 2, 3, 4 & 5 within the 06-34-03 sequence of PCT/EP2012/069898 (SEQ ID NO 58))",Frequency (relative abundance in the total selection outputs),,3
